Results published in patent publication US20040202655A1 (published 2004).
Substitutions are numbered along the chain they refer to. “And” between values parts separate entries of the source, which are not always exact repeats. Identical values can stand only once.

B1: PINT-11A1 IgG (antibody, V domains shown)
VH: EVQLVESGGGVVQPGRSLRLSCAASGFTFSDFAMHWVRQIPGKGLEWLSGLRHDGSTAYYAGSVKGRFTISRDNSRNTVYLQMNSLRAEDTATYYCVTGSGSSGPHAFPVWGKGTLVTVSS
VL: not shown
B2: PINT-11A11 IgG (antibody, V domains shown)
VH: QVQLVESGGGLVKPGGSLRLSCAASGFTFSSHTMNWVRQAQGKGLEWVSSISGSGRYIYYSDSVKGRFTISRDAAKNSLYLQMNNLRAEDTAVYYCTRAKFGDYLFDSWGQGTLVTVSS
VL: LNFMLTQPHSVSQSPGKTVTISCTRSSGRIASNFVQWYQQRPGSAPTTVIYEDNRRPSGVPDRFSGSIDSSSNSASLTISGLKTEDEADYYCQSYDARYQVFGTGTKVTVLG
B3: PINT-11A3 IgG (antibody, V domains shown)
VH: EVQLVQSGAEVKKPGASVKVSCKASGYSFTNYGLNWVRQAPGQGLEWMGWISPYTGYTNYAQKFQGRVTMTTDKSTSTAYMDLRSLRSDDTAVYYCAREIFSHCTGGSCYPFDSWGRGTLVTVSS
VL: LSSELTQDPAVSVALGQTVRITCQGDSLRNYYASWYQQKPGQAPLLVMFGKNNRPSEIPGRFSGSSSGNTASLTITGAQAEDEADYYCNSRDRNSHQWVFGGGTKLTVLG
B4: PINT-12A3 IgG (antibody, V domains shown)
VH: B3 VH with E1Q, T72S, V93I, T105S, S114Y, R117Q
VL: LSSELTQDPAVSVALGQTVRITCQGDSLRSYYASWYQQKPGQAPLLVIYGRNNRPSGIPDRFSGSSSGNTASLTITGAQAEDEADYYCNSRDSSTNHGNWVFGGGTQLTVLS
B5: PINT-11A5 IgG (antibody, V domains shown)
VH: B3 VH with E1Q, R117K
VL: LSSELTQDPAVSVALGQTVRITCQGDSLRSYYASWYQQKPGQAPVLVIYGKNNRPSGIPDRFSGSSSGNTASLTITGAQAEDEADYYCNSRDSSGNHHWVFGGGTKVTVLG
B6: PINT-11A7 IgG (antibody, V domains shown)
VH: B3 VH with N35D, L120M
VL: B4 VL with L45V, R51K, T95G, G98R, Q107K, L108V, S112G
B7: PINT-12A1 IgG (antibody, V domains shown)
VH: B3 VH with R117K
VL: LSSELTQDPAVSVALGQTVRITCQGDSLRNYYASWYQQKPGQAPVLVLYSKNSRPSGVPDRFSGSSSGTTASLTISGAQAEDEADYYCNSRDTSGDLRWVFGGGTKLTVLG
notes: see recheck
B8: PINT-12A4 IgG (antibody, V domains shown)
VH: B3 VH with E1Q, L120M
VL: B5 VL with H97L, H98N, K106Q, V107L, G111S
B9: PINT-12A2 IgG (antibody, V domains shown)
VH: B3 VH with R117Q
VL: B3 VL with R93S
B10: PINT-11A2 IgG (antibody, V domains shown)
VH: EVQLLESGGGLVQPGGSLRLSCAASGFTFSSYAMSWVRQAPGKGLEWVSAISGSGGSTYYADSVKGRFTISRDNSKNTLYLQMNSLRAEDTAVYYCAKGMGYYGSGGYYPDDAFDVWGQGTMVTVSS
VL: LSSELTQDPDVSMALGQTVTISCRGDSLKRFYASWYHQKPGQAPVLVFYGKENRPSGIPDRFSGSDSGDTASLTITGAQAEDEGDYYCHTQDTSARQYVFGSGTKVTVLG
B11: PINT-7A2 IgG (antibody, V domains shown)
VH: GVQLVQSGAEVKKPGESLTISCKGSGYNFFNYWIGWVRQMPGKGLEWMGIIYPTDSDTRYSPSFQGQVTISVDKSISTAYLQWSSLKASDTAMYYCARSIRYCPGGRCYSGYYGMDVWGQGTMVTVSS
VL: SELTQDPAVSVALGQTVRITCQGDSLRSYYTNWFQQKPGQAPLLVVYAKNKRPSGIPDRFSGSSSGNTASLTITGAQAEDEADYYCNSRDSSGNHVVFGGGTKLTVLG
B12: PINT-7A6 IgG (antibody, V domains shown)
VH: B11 VH with G1E, M123L
VL: B11 VL
B13: PINT-11A12 IgG (antibody, V domains shown)
VH: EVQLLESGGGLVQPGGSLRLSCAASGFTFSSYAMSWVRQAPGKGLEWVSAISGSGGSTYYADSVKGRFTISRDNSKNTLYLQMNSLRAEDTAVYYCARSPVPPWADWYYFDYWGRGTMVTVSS
VL: AQAVLTQPSSVSGAPGQRVTISCTGSRSNFGAGYDVHWYQQFPGTAPKLLIYGNTNRPSGVPDRFSGSRSGTSASLAITGLQAEDEADYYCQSYDSNLSGSVFGGGTKVTVLG

Molecular target: T1, human IGF-I receptor on cells (NIH-3T3 fibroblasts expressing the human IGF-IR; DU145 cells) (human, UniProt P08069 31-1367)
Assay: cell-based or functional assay

Row | Binder | IC50 (nM), IGF-1 dependent proliferation of NIH-3T3/hIGF-1R cells (BrdU ELISA)
1 | B1 | 5.4 nM and 3.3 nM
2 | B2 | 16.4 nM and 25 nM
3 | B3 | 32.1 nM and > 70 nM
4 | B4 | > 70 nM
5 | B5 | > 70 nM
6 | B6 | > 70 nM
7 | B7 | > 70 nM
8 | B8 | > 70 nM
9 | B9 | > 70 nM
10 | B10 | > 70 nM
11 | B11 | 5 nM and 3.8 nM
12 | B12 | > 70 nM
13 | B13 | > 70 nM

Molecular target: T1, human IGF-I receptor on cells (NIH-3T3 …)
Assay: cell-based or functional assay
Remark: another data set of the same source

Row | Binder | Antagonist Assay IC50 (nM), IGF-I-induced IGF-1R tyrosine phosphorylation (ELISA)
14 | B1 | 5.4 nM and 7.4 nM
15 | B2 | 14.9 nM and 10.6 nM
16 | B4 | > 40 nM
17 | B5 | > 40 nM
18 | B6 | 26.6 nM and > 40 nM and 25.5 nM
19 | B7 | > 40 nM
20 | B8 | > 40 nM
21 | B9 | > 40 nM
22 | B10 | > 40 nM
23 | B11 | 2.62 nM and 1.97 nM
24 | B12 | 9.7 nM and 8.5 nM
25 | B13 | > 40 nM

Molecular target: T1, human IGF-I receptor on cells (NIH-3T3 …)
Assay: competition with 125I-IGF-I, NIH-3T3 cells expressing human IGF-1R, 4 C
Experimental: (§1) NIH-3T3 fibroblasts expressing the human IGF-IR, or NIH-3T3 non-transfected fibroblasts were plated at 6×10⁴ cells per well in 0.5 ml of DMEM (Gibco, #11960-044) supplemented with 10% heat-inactivated fetal bovine serum (Gibco, #16140-071), 2 mM L-glutamine (Gibco, #25030-081) and 50 U/ml penicillin-streptomycin (Gibco, #15070-063). The NIH-3T3 cells were used as a control for non-specific cell binding. The plates were incubated at 37° C./5% CO₂ for 24 hours to allow cells to attach and become 80-90% confluent. The overlying media was then replaced with 0.5 ml per well of starvation media consisting of DMEM, 20 mM Hepes (Gibco, #15630-080), 2 mM L-glutamine and 0.1% bovine serum albumin (Equitech-Bio, protease-free, Kerrville, Tex.) and the plates were incubated at 37° C., 5% CO₂ overnight. All subsequent binding steps were conducted at 4° C. Test antibodies were diluted in ice-cold starvation media to the desired final concentration and 100 μl added per well. All samples were performed in duplicate. […] Cell monolayers were washed three times with ice-cold PBS (Gibco, #14040-117) and cells and associated radioactivity were released by adding 0.5ml 2% sodium dodecyl sulfate/0.2N NaOH to each well and heating the plates at 60° C. for 15 minutes. Lysate associated radioactivity was quantitated by gamma scintillation spectrometry. Alternatively, the same described experiment was performed with preincubation with the test antibodies at 37° C. for 10 minutes, followed by 10 minutes incubation at 37° C. after addition of 400 pM of the iodinated radioligand.

Row | Binder | IC50
26 | B1 | 8 nM and 10 nM
27 | B2 | 1.6 nM
28 | B3 | 1.1 nM and 1.2 nM
29 | B4 | 1.5 nM and 1.7 nM
30 | B5 | 1.2 nM and < 0.4 nM and 0.75 nM
31 | B6 | 1 nM and 1.4 nM
32 | B7 | 1.5 nM and 1.2 nM
33 | B8 | > 50 nM
34 | B9 | 1 nM and 0.7 nM
35 | B10 | > 100 nM
36 | B11 | 0.5 nM and 1.3 nM
37 | B12 | 1 nM and 0.8 nM

Molecular target: T1, human IGF-I receptor on cells (NIH-3T3 …)
Assay: competition with 125I-IGF-II, NIH-3T3 cells expressing human IGF-1R, 4 C
Experimental: as §1

Row | Binder | IC50
38 | B1 | > 75 nM
39 | B11 | < 0.8 nM and 0.4 nM
40 | B12 | < 0.8 nM and 0.3 nM

Molecular target: T2, human insulin receptor on CHO cells (human, UniProt P06213 28-1382)
T2 construct: whole, on cells
Assay: competition with 125I-insulin, CHO cells expressing human insulin receptor, 4 C
Experimental: The Parental 3T3 cells were used as a control for background radioactivity. We then incubated the plates at 37° C., 5% CO₂ for 24 hours to allow cells to attach and become 80-90% confluent. The media was decanted from the plates, replaced with 500 μl per well of starvation or assay media consisting of IMDM, 20 mM Hepes (Gibco, #15630-080), 2 mM L-glutamine and 0.1% bovine serum albumin (Equitech-Bio, protease-free, Kerryville, Tex.) and the plates were incubated at 37° C., 5% CO₂ overnight. The antibodies were diluted in cold assay media to the desired final concentration and added 100 μl per well. All samples were performed in duplicate. The plates were incubated at 4° C. for 30 minutes. […] The plates were incubated for 2.5 hours at 4° C., then aspirated the media and washed 3× with cold DPBS (Gibco, #14040-117). The cells were lysed by adding 500 μl 0.2 NaOH, 2% SDS and incubating the plates for 15 minutes at 60° C. The samples were transferred to 12×75 tubes (Sarsted, #55.476, 5 ml) and the signal read on a gamma counter.

Row | Binder | IC50
41 | B2 | > 200 nM
42 | B4 | > 200 nM
43 | B5 | > 200 nM
44 | B6 | > 200 nM
45 | B7 | > 200 nM
46 | B8 | > 200 nM
47 | B9 | > 200 nM
48 | B13 | > 200 nM
